# From patent publication US9879094B2, “Nucleic acid molecules encoding for BACE1 antibodies” (Genentech, Inc., priority 2010, dated 2018)
# “And” between values parts separate entries of the source, which are not always exact repeats. Equal entries are not always repeated. “Also recorded” adds a separate entry of the source.
# Tests used:
# [1] = Antibody concentration in monkey serum and CSF; assay type: in vivo, Cynomolgus monkey; details: 30 mg/kg IV
# Description: Cynomolgus monkeys were dosed with control IgG or YW412.8.31 anti-BACE1 antibody (30 mg/kg) by IV delivery. Plasma and CSF were sampled up to 7 days prior to dosing to set mean baseline Aβ1-40 levels in each in individual animal, and then at various times after dosing. Total anti-BACE1 or control antibody concentrations in monkey serum and CSF samples were measured using monkey-adsorbed goat anti-human IgG polyclonal antibody (Bethyl, Montgomery, Tex.) as both coat and detection (FIG. 20). Free anti-BACE1 antibody concentrations in monkeys were determined using BACE1 ECD as coat and the monkey-adsorbed goat anti-human IgG antibody (Bethyl) for detection.
# [2] = target: T1, human BACE1 ECD (Homo sapiens, UniProt P56817); test: BIAcore SPR binding kinetics, human BACE1
# T1 construct: human BACE1 ECD or murine BACE1 ECD (amino acids 1-457) was injected in PBT buffer
# T1 sequence (P56817 22-457): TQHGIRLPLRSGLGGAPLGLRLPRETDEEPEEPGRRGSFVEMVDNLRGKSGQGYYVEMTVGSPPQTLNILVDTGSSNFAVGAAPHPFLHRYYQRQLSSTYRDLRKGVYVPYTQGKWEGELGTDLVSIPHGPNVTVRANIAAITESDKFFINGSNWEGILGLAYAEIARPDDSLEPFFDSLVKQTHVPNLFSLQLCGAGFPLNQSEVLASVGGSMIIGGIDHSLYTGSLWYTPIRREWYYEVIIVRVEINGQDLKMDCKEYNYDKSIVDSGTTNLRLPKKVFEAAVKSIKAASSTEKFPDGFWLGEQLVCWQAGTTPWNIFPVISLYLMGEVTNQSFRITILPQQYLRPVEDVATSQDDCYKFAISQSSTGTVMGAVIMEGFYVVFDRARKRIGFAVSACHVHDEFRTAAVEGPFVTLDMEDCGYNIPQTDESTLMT
# Description: The binding kinetics of YW412.8.31 was assessed. Briefly, binding affinities of anti-BACE1 IgGs were measured by surface plasmon resonance (SPR) using a BIAcore™-3000 instrument. YW412.8.31 anti-BACE1 human IgG was captured by mouse anti-human Fc antibody (GE Healthcare, cat# BR-1008-39) coated on CM5 biosensor chips to achieve approximately 100 response units (RU). For kinetics measurements, two-fold serial dilutions (0.98 nM to 125 nM) of human BACE1 ECD or murine BACE1 ECD (amino acids 1-457) was injected in PBT buffer (PBS with 0.05% Tween 20) at 25° C. with a flow rate of 30 μl/min. Association rates (kon) and dissociation rates (koff) were calculated using a simple one-to-one Langmuir binding model (BIAcore™ Evaluation Software version 3.2). The equilibrium dissociation constant (KD) was calculated as the ratio koff/kon.
# [3] = test system: Aβ1-40 in wild-type C57Bl/6J mice; test: Wild-type C57Bl/6J mice, IP dosing, Aβ1-40 levels; assay type: in vivo, mouse
# Description: Additional experiments with wild-type C57Bl/6J mice were performed in which 100 mg/kg of YW412.8.31, or a control IgG, was administered systemically. Levels of Aβ1-40 in both the plasma and forebrain of treated animals four hours after a single intraperitoneal (IP) injection were determined. Blood was collected from animals by cardiac puncture to isolate plasma.
# Following PBS perfusion, the brain was harvested and forebrain from one hemibrain was prepared in PK buffer (1% NP-40 in PBS, with Roche complete protease inhibitors) whereas forebrain from the other hemibrain was homogenized in 5M GuHCL, 50 mM Tris pH 8.0, and further diluted in Casein Blocking Buffer (0.25% casein/0.05% sodium azide, 20 μg/ml aprotinin/5 mM EDTA, pH 8.0/10 μg/ml leupeptin in PBS) for Aβ1-40 analysis.
# Additional experiments were performed in order to determine the effect of elevated brain antibody levels through repeated dosing. YW412.8.31 antibody, or control IgG, was administered at 30 or 100 mg/kg IP every 4 days for a total of 3 doses. In this study the levels of Aβ1-40 in both the plasma and forebrain of treated animals 4 hours post last dose were measured. Again, ˜50% reduction in plasma Aβ1-40 levels following multi-dosing at both 30 and 100 mg/kg was observed (FIG. 22, panel B). […] YW412.8.31 antibody concentrations in serum were 480±210 and 1500±440 μg/mL, and concentrations in brain were 0.9±0.6 μg/g (5.9±4.3 nM) and 3.0±1.6 μg/g (20±10 nM) following administration at 30 and 100 mg/kg given every 4 days, respectively.
# [4] = test system: E13.5 dorsal root ganglia neurons; test: Aβ40 production in DRG neurons; assay type: cell-based, mouse; details: highest concentrations
# Description: Similar studies were also performed in dorsal root ganglia, cortical neurons and hippocampal neurons isolated from mice. Briefly, dissociated neuronal cultures were prepared from E13.5 dorsal root ganglia (DRG), E16.5 cortical neurons and E16.5 hippocampal neurons. Neurons were grown for five days in vitro. Fresh media containing YW412.8.31 anti-BACE antibody or control IgG1 was incubated with the neurons for 24 hours. Media was harvested and assayed for the presence of Aβ40 using the MSD® Rodent/Human (4G8) A1340 Ultrasensitive kit according to the Manufacturer's instructions. Aβ40 values were normalized for cell viability, as determined using the CellTiter-Glo Luminescent Cell Viability Assay (Promega). The experiment was performed at least three times, and each point was repeated in duplicate. Data was plotted using a four-parameter non-linear regression curve-fitting program (Kaleidagraph, Synergy Software).
molecule,measurement,setting,value
"YW412.8.31: affinity matured form of YW412.8 anti-BACE1 antibody (antibody, V domains shown) VH: EVQLVESGGGLVQPGGSLRLSCAASGFTFLGYGIHWVRQAPGKGLEWVGWISPAGGSTDYADSVKGRFTISADTSKNTAYLQMNSLRAEDTAVYYCARGPFSPWVMDYWGQGTLVTVSS VL: DIQMTQSPSSLSASVGDRVTITCRASQDVSTAVAWYQQKPGKAPKLLIYSASFLYSGVPSRFSGSGSGTDFTLTISSLQPEDFATYYCQQFPTYLPTFGQGTKVEIK",concentration in CSF,[1],0.2-0.3 μg/ml and ~2 nM
same,peak serum antibody concentration,[1]; 15 minutes post administration,~800 µg/mL
same,serum antibody concentration,[1]; 7 days post-dose,232 µg/mL
same,Binding to BACE1,[2]; at both pH 7.0 and 5.0,confirmed
same,KON,"[2]; human BACE1, IgG captured, pH 7.0, 25° C.",1.1 × 10^5 M^−1S^−1 and 1.05 × 10^5 M^−1S^−1
same,reduction of forebrain Aβ1-40,"[3]; 30 mg/kg IP, 3 doses every 4 days",no reduction; also recorded: not reduced
same,reduction of forebrain Aβ1-40,"[3]; 100 mg/kg IP, 3 doses every 4 days",42%
same,change in forebrain Aβ1-40,"[3]; 100 mg/kg single IP, 4 hours",no change; also recorded: not reduced
same,reduction of plasma Aβ1-40,"[3]; 100 mg/kg single IP, 4 hours",~50% and 48%
same,reduction of plasma Aβ1-40,"[3]; 30 and 100 mg/kg IP, 3 doses every 4 days, 4 hours after last dose",~50% and 50-53%
same,reduction in Aβ40 production,[4],~50%
